Experimental data as given in patent US20220211826A1.
One block for each substance: values may come before it.

Assays:
[1] = target: H-2Kb/SIINFEKL pMHC complex on primary hepatocytes (mouse); assay: cell-based or functional assay
[2] = target: PD-L1 expressed by hepatocytes of C57BL/6 mice (mouse) (UniProt Q9EP73); assay: cell-based or functional assay
UniProt Q9EP73, sequence (Q9EP73 19-290): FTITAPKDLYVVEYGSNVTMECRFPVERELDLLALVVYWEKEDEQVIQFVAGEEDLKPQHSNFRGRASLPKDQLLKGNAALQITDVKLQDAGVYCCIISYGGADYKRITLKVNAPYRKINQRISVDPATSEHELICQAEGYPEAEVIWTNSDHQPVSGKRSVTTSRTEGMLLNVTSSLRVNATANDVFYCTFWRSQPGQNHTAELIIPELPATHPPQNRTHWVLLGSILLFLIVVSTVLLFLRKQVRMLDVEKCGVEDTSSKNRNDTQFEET

CD69+ OT-I cells after 24 hr co-culture with hepatocytes incubated with pGal-OVA alone [1]: 17% | CD69+ OT-I cells after 24 hr co-culture with hepatocytes treated with pGal-OVA and MG132 [1]: 3.98% | CD69+ OT-I cells after 24 hr co-culture with hepatocytes treated with pGal-OVA and chloroquine [1]: 7.38%
Substance: T cell receptor of OT-I cells (transgenic CD8+ T cells specific for H-2Kb/SIINFEKL) (TCR)

frequency of dLN IFN-γ+ OT-I cells, pGal-OVA and isotype control antibody-treated hepatocytes [2]: 29.2% | frequency of dLN IL-2+ OT-I cells, pGal-OVA and isotype control antibody-treated hepatocytes [2]: 4.21%
Substance: rat IgG isotype control Ab (Abcam) (antibody)
frequency of CD45.1+ OT-I cells among viable CD3+CD8+ lymphocytes in dLNs, mice given hepatocytes treated with pGal-OVA and isotype control antibody [2]: 0.2%

frequency of IFN-γ+ OT-I cells after OVA/LPS challenge, αPD-L1-treated hepatocytes [2]: 47.1% | frequency of IL-2+ OT-I cells after OVA/LPS challenge, αPD-L1-treated hepatocytes [2]: 7.53%
Substance: αPD-L1 blocking Ab (BioxCell, clone 10F.9G2) (antibody)
frequency of CD45.1+ OT-I cells among viable CD3+CD8+ lymphocytes in dLNs, mice given pGal-OVA- and αPD-L1-treated hepatocytes [2]: 0.45%
